How the values were obtained:
[1] = biological target: the molecule itself; assay: molecular brightness from raster image correlation spectroscopy (RICS); live HEK293 cells, confocal, 37 °C, bottom membrane; clusters masked out by intensity thresholding; brightness of eGFP compared with eGFP5 and Lyn-eGFP references
[2] = biological target: GlyR-α3K-mCherry (glycine receptor α3 subunit, short splice variant K, N-terminally tagged with mCherry) (mouse); assay: subunit counting by stepwise photobleaching (TIRF microscopy); fixed HEK293 cells with low copy number expression (50 ng GlyR-α3L-eGFP, 0-500 ng GlyR-α3K-mCherry); eGFP bleaching steps per diffraction-limited spot, step histogram fitted with binomial models; room temperature

B1: GlyR-α3L-eGFP (glycine receptor α3 subunit, long splice variant L, N-terminally tagged with eGFP) (receptor, mouse, UniProt Q91XP5 34-464, looked up)
chain: ARSRSAPMSPSDFLDKLMGRTSGYDARIRPNFKGPPVNVTCNIFINSFGSIAETTMDYRVNIFLRQKWNDPRLAYSEYPDDSLDLDPSMLDSIWKPDLFFANEKGANFHEVTTDNKLLRIFKNGNVLYSIRLTLTLSCPMDLKNFPMDVQTCIMQLESFGYTMNDLIFEWQDEAPVQVAEGLTLPQFLLKEEKDLRYCTKHYNTGKFTCIEVRFHLERQMGYYLIQMYIPSLLIVILSWVSFWINMDAAPARVALGITTVLTMTTQSSGSRASLPKVSYVKAIDIWMAVCLLFVFSALLEYAAVNFVSRQHKELLRFRRKRKNKTEAFALEKFYRFSDTDDEVRESRFSFTAYGMGPCLQAKDGVVPKGPNHAVQVMPKSPDEMRKVFIDRAKKIDTISRACFPLAFLIFNIFYWVIYKILRHEDIHQQQD
notes: Glycine receptor subunit alpha-3, mouse, splice variant L (464 residues); The receptor assembles as a pentamer; the molecule here is the subunit; also called L variant; GlyR-α3L-FP; source: HEK293, transiently transfected (calcium phosphate; truncated CMV promoter), in the membrane of live or fixed cells; not shown: eGFP, N-terminal, kept
stoichiometry N [1]: 5
heteropentameric fraction (2nd order binomial fit) [2]: 23%
heteropentameric fraction (3rd order binomial fit) [2]: 36%
heteropentameric fraction (4th order binomial fit) [2]: 67%

Source: PMC9534812, “Hetero-pentamerization determines mobility and conductance of Glycine receptor α3 splice variants” (Cellular and Molecular Life Sciences, 2022)
